± gives the uncertainty stated by the source.
Test: amyloid nucleation score (Sup35N fusion, yeast selection) (log enrichment); library NNK3; higher = more nucleation; inactive = no reads after selection
Method in brief: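 The nucleation score is a DiMSum log enrichment of output over input reads, centred on the mode score of non-aggregating sequences. Sequences under 100 input reads were excluded, and reads came from Illumina sequencing of plasmid inserts. Psi-negative yeast expressing Sup35N fused to peptides of 20 random codons were induced with 100 μM copper sulfate for 24 hours and grown 7 days at 30°C on medium lacking adenine and uracil. Random libraries had three technical output replicates.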

Amyloid nucleation score, 1.25 ± 0.14:
YGKFMLLPVAGGIFVFENML

Amyloid nucleation score, 1.98 ± 0.086:
YFFSVAISKVYDFSVKSRCT

Amyloid nucleation score, -0.542 ± 0.98:
YKGYSVCIVLPFG

Amyloid nucleation score, 1.19 ± 0.12:
YFIVSWFFQNCFR

Amyloid nucleation score, 2.6 ± 0.064:
YKSLIVNANYCDLGFLRGWC

Amyloid nucleation score, 2.15 ± 0.093:
YFLLYTVNGGTASTLNYV

Amyloid nucleation score, 0.468 ± 0.22:
YGNEFEDNPSMATTTDQRAR

Amyloid nucleation score, -0.195 ± 0.9:
YDFYTIVNIRTLHPRLIFFM

Amyloid nucleation score, 0.997 ± 0.14:
YFDCNFVW

Amyloid nucleation score, 2.39 ± 0.064:
YELGIHWTYCWL

Amyloid nucleation score, 0.891 ± 0.27:
YFEVDNLRRIQRRLICLGPE

Amyloid nucleation score, 2.04 ± 0.07:
YFCFVLFYLN

Amyloid nucleation score, 0.356 ± 0.24:
YFSAIFFDSLYMLYGSNRAV

Amyloid nucleation score, 0.709 ± 0.18:
YKSVYMRF

Amyloid nucleation score, 0.253 ± 0.18:
YDCVIYSVAECLYVTSSFIE

Amyloid nucleation score, 0.331 ± 0.37:
YAKFCVSASYGVCQKLHGQF

Amyloid nucleation score, 0.593 ± 0.19:
YDRAKSQRIRAQPESTSSVL

Amyloid nucleation score, 1.95 ± 0.099:
WSIMSLNFRVDTHYSVHRYV

Amyloid nucleation score, 0.431 ± 0.28:
YIGVYYLN

Amyloid nucleation score, inactive:
WKYRMTQRPQMVNWNVLRYE, WLFAIFGDGAVFGSYGGWGV, WLRRN, WLSRLVGFALSTKLGP, WLSRPLCIIGWASRSMRGSH, WLVGFLFILWV, WLVGICWNWRWHLAVAGVVG, WLWVGIGLRSYELLNEEW, WMDNAI, WMGSVCSFRSIPCSMSTLR, WMPDPRVCQKMFVMCKHSP, WMVNVTGWISHGRFGYNFLI, WMYRKTSNRICCLPRESVNP, WNRTEDMR, WNTGNMLPSVFTQMFA, WNYPFNFQF, WPLYNFVISWIGRTYYSVYL, WRAAIEDASLFIERIHNNSS, WRDFLYLRHGFQYGIRPMSE, WRFFDVDNNMSTHVLKQLRC, WRKTRGLNILRLWSLVSFRM, WRRLRATISNGAWD, WRTFLCWYVLGPKTSFEYGR, WRVSLWLGWNLFWTCSNPAD, WSRHSTMGTRPEKQVLWPAG, WSRLDMMLRLLAVLLPVRLD, WSRSNGVFVGGRNCFLAQDF, WSSSS, WSVGATWVVAFA, WSVSKCDVLGLNSDVFKLWL, WVCTVVLVKDLPPRRSVLVG, WVQVRRVKIE, WVSSFTVAWKGGKQRVITVE, WVVKKVPDGRFLFVDCVCGI, WVVRYMDYSLMD, WWCLFWVSWN, WWRKPLTFNDRIWRLRKHRS, WWSYQGRLVGCGYMRTDNAP, WYAKCCKV, WYALYSIWVKHTHLCERTVE, WYPGMCFESVDTMDRHLHND, WYRLRYSQST, WYSYPNFG, YAALILGVVQCAGLILFYVI, YACMCLCELSASYKLDTMC, YAFISDYQYGILFYIKWYFG, YAGFTQNDNVKLYTGNPFHM, YASYGSKGGITTLRRIISGS, YCDSCLNDFLVWYF, YCDSVWNQNSTYHISL, YCETSLLCCCSIPWYLNCIE, YCFVPRIMYMVCQYCVLTND, YCGNLYRDFLGQQPF, YCVWFPSVCFIRRYVSIRLI, YCVWLVSKTISWFQTVFI, YDGCDS, YDGVNKLRSVCCVESSDFGL, YDIMVVWWFFVCSRSV, YDMTRHLYVSSPEIVKPY, YDYYFFNSFNISDIMR, YEDAAILDVCDPQIELLLHQ, YEKYDTKVWNCG, YFFIPVKW, YFGNSGWDHGWPVVHKMSFS, YFGVTLLMYERARWASFYRF, YFHGFLFYSE, YFLFNTYWDRALQSKTVGGL, YFLGECNPRCYLLRGLAAWN, YFLQTEAEVSFEQEVVAISL, YFMVEVMLILMSDGAFYTFC, YFNGATS, YFNRNQYVDDTCG, YFPSYYVADFSSHLLMGQVY, YFQGWSMVCSDVSTGKSVVM, YFSSLNSNFWGVVRRRLLYN, YFSYLCGVRYLYCFKLCSSM, YFTQNSSYVGV, YFYIPGH, YGAMSAGDMETY, YGCGIQGLVQWTCDTGRMHC, YGCRRDIFKYSMTLLMDAID, YGEAAYRDRS, YGFRMRRLVARLESRQWFWG, YGFRVCYPQASMSTVVEHSR, YGGDSNRIRVRLFKMKTLNL, YGSIV, YGVLS, YHAYRTGE, YHDFLYIEGWQMSETNSFEC, YHLYDETMCMP, YHPYRWLHESRL, YHSLYTAPDEGLFYRNRRKF, YHSSVCTDVIYGTTYWGCAV, YHWSS, YICLYHLLVWWDRQFRGFNS, YICNY, YIFVSRIIGVPFRLVQVTSG, YIMAFCCLLPNPPVSVLMAH, YIRELARPTLSRIKRLAPIS, YISYLDMDCEFVLS, YITDYNQVSAHTQNKKTMGY, YIVLKYSEMRTRVTDYRTTG, YIWTMWSSSLCVLMGAKGAA, YKEMVHRSG, YKEMVRRNLSRANKFDCGSM, YKLNMLLGYLLMFTLGIHAV, YLCTGQAGCAYMPRS, YLEKAL, YLFRNLRGRAIFVNKIIGQR, YLHVVTWLMNACPGQPRHWL, YLICTRPILSLASLVS, YLKMLSVLKWRKNISRFVLP, YLKVADVSLHLSHDLTYLLM, YLLDKYEVAFIPSHLVLHSP, YLLRHILSIWKGWDWGTSQ, YLMFGTTNMAVLIRFEHH, YLMIIDRPKSHNLPYLGMLH, YLPRSW, YLQLTRQTSYVIIAL, YLSVIKNTIPEMWIIVGVCR, YLSVVRGPMNRCSYYKVMTE, YLTCDKTNVNGFMI, YLTSFRFYVFTFR, YLVMTSLIC, YLWRQYYALFCYCFWNLKGP

Amyloid nucleation score, 0.972 ± 0.23:
YFRFFTFSNCRDYKDTYPTL

Amyloid nucleation score, -0.462 ± 0.9:
WWNLWSPAATATRRCY

Amyloid nucleation score, 1.82 ± 0.08:
YLTGTMSVEFRPHGMPNLSK

Amyloid nucleation score, 0.186 ± 0.29:
YISNMLTLSPAKVSHKSWVI

Amyloid nucleation score, 1.6 ± 0.087:
WMMMNFHLSMQD

Amyloid nucleation score, 0.537 ± 0.17:
YLSINHRTTSFYWYDFAGFP

Amyloid nucleation score, 0.06 ± 0.23:
YEMMCQYVYECWYIIDARRM

Amyloid nucleation score, 2.37 ± 0.071:
YLVRLVSDITRKNR

Amyloid nucleation score, 0.403 ± 0.24:
WMDIYW

Amyloid nucleation score, 0.506 ± 0.38:
YHLSQAYDMKVYILNRCGLF

Amyloid nucleation score, -0.059 ± 0.78:
YLLCGYRGATFRKHEVWGEG

Amyloid nucleation score, 0.718 ± 0.28:
WLSGACEPPF

Amyloid nucleation score, 2.01 ± 0.095:
WVCYNKFSVCVWLVDKAD

Amyloid nucleation score, 1.04 ± 0.094:
YLLSIEYVNLAIVDNSWRMF

Amyloid nucleation score, 2.82 ± 0.052:
YIIFNFIDFYKPGWGFQWTV

Amyloid nucleation score, 0.459 ± 0.27:
YIRLCSVFGTTWYARLDG
